Test results: patent US9925272B2, “Anti-theophylline antibodies and methods of use” (Hoffmann-La Roche Inc., priority 2012, dated 2018)
Like-named read-outs stand apart in the source and are kept apart here.

Assays:
[1] = ELISA for specific binding of the antibody to immobilized biotinylated theophylline; conditions: biotinylated theophylline 500 ng/mL on streptavidin plates; antibody 50-3000 ng/mL; anti-huFc Fab-HRP/ABTS, absorbance 405 nm
Description: To determine specific binding of the antibody by ELISA, Streptavidin coated ELISA plates were loaded with biotinylated theophylline (500 ng/mL in PBS) and incubated for 30 minutes at room temperature. After washing twice to remove unbound antigen, antibodies were added at concentrations between 50 and 3000 ng/mL (in PBS) and incubated for 30 minutes. After washing twice, bound antibody was detected with an anti-huFc Fab-HRP conjugate and ABTS substrate (with absorbance measurement at 405 nm).

[2] = Surface-plasmon-resonance (SPR) analysis of the affinity of antibody binding to theophylline
From the text: FIG. 3 Binding profiles of the theophylline binding antibodies in SPR experiments.
To determine the affinity of specific binding of the antibody to theophylline, surface-plasmon-resonance (SPR) analyses were applied.

[3] = read-out: calculated affinities (KD)

| Molecule | binding to theophylline immobilized on the ELISA plate [1] | ka [2] | kd [2] | Kd ([2]; read-out: KD) [nM] | Kd [2, 3] [nM] | Kd ([2]; unit inferred, read-out: KD) [nM] |
| --- | --- | --- | --- | --- | --- | --- |
| humanized antibody: humanized anti-theophylline antibody; VH SEQ ID NO: 12 (V71R), VL SEQ ID NO: 16 (R46L); human IgG1/kappa constant regions (antibody, V domains shown, human IgG1/kappa constant regions; humanized VH; humanized VL) VH: QVQLQESGPGLVKPSQTLSLTCTVSGYSITSDYAWNWIRQHPGKGLEWIGYIRYSGHTGYNPSLKSRVTISRDTSKNQFSLKLSSVTAADTAVYYCARWVDYFDYWGQGTLVTVSS VL: DVVMTQSPLSLPVTLGQPASISCRSSQSIVYNNRYTYLEWFQQRPGQSPRLLIYGVSNRFSGVPDRFSGSGSGTDFTLKISRVEAEDVGVYYCYQGTHAPYTFGQGTKLEIK | binds specifically and dose dependent to theophylline | 1.31E+05 | 0.002214 | 17 | 17 | 17 |
| murine antibody: murine anti-theophylline antibody, IgG1 kappa, from mouse hybridoma; VH SEQ ID NO: 04, VL SEQ ID NO: 08 (antibody, listed as Mus musculus, V domains shown) VH: DVQLQESGPGLVKPSQSLSLTCAVTGYSITSDYAWNWIRQFPGNRLEWMGYIRYSGHTGYNPSLKSRISITRDTFKNQFFLQFNSVTTEDTATYYCARWVDYFDYWGQGTTLTVSS VL: DVVMTQSPLSLPVSLGDQASISCRSSQSIVYNNRYTYLEWFVQKPGQSLKLLIYGVSNRFSGVPDRFSGSGSGTDFTLKISRVEAEDMGVYYCYQGTHAPYTFGGGTKLEIK |  | 1.12E+05 | 0.00228 | 20.3 | 20 | 20.3 |
